# Experimental data: patent publication US20140363377A1 (UNIVERSITY OF BRITISH COLUMBIA, published 2014)
# B1: FADD, endogenous, in human cancer cell lysates (other, UniProt Q13158 1-208, looked up)
# chain: MDPFLVLLHSVSSSLSSSELTELKFLCLGRVGKRKLERVQSGLDLFSMLLEQNDLEPGHTELLRELLASLRRHDLLRRVDDFEAGAAAGAAPGEEDLCAAFNVICDNVGKDWRRLARQLKVSDTKIDSIEDRYPRNLTERVRESLRIWKNTEKENATVAHLVGALRSCQMNLVADLVQEVQQARDLQNRSGAMSPMSWNSDASTSEAS
# notes: also called Fas-associated death domain; p-FADD
# B2: SPARC (Secreted Protein, Acidic, Rich in Cysteines), His-tagged, stably expressed in MIP101 cells (MIP/SP) (other, human, UniProt P09486 18-303, looked up)
# chain: APQQEALPDETEVVEETVAEVTEVSVGANPVQVEVGEFDDGAEETEEEVVAENPCQNHHCKHGKVCELDENNTPMCVCQDPTSCPAPIGEFEKVCSNDNKTFDSSCHFFATKCTLEGTKKGHKLHLDYIGPCKYIPPCLDSELTEFPLRMRDWLKNVLVTLYERDEDNNLLTEKQKLRVKKIHENEKRLEAGDHPVELLARDFEKNYNMYIFPVHWQFGQLDQHPIDGYLSHTELAPLRAPLIPMEHCTTRFFETCDLDNDKYIALDEWAGCFGIKQKDIDKDLVI
# notes: Present in membrane fractions of MIP/SP cell lysates used for co-immunoprecipitation; also called osteonectin; His-tagged SPARC protein; not shown: His tag
# Tests used:
# [1] = target: B2; test: co-immunoprecipitation from subcellular fractions
# Method: (§1) Cells were separated into nuclear, cytosolic, and membrane fractions using ProteoExtract Subcellular Proteome Extraction Kit (EMD Biosciences Inc.). […] Protein:Antibody mixture was then incubated with 30 μL of Protein A: Protein G (Sigma) (1:1) beads for 4 hours (4° C.).
# [2] = target: T1, DR4, endogenous, in human cancer cell lysates (human, UniProt O00220 24-468); test: co-immunoprecipitation from subcellular fractions
# T1 construct: also called TRAIL receptor DR4
# T1 sequence (looked up): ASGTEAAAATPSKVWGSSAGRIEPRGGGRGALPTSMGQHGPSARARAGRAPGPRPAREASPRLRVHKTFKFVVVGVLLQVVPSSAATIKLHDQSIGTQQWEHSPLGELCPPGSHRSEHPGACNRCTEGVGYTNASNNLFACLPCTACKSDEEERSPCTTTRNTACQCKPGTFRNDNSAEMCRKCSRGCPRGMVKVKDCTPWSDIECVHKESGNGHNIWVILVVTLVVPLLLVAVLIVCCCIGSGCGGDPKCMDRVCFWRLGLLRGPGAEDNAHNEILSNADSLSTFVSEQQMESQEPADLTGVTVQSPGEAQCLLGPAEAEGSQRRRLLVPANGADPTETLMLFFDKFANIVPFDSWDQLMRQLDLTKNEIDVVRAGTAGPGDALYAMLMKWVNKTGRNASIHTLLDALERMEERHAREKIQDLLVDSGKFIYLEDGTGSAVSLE
# Method: as §1
Binder,binding result [1],binding result [2]
B1,no binding,
B2,,no binding
